Measurements taken from the supplement of paper PMC5998384.

Legend:
HeLa Kyoto [1] = experiment: melting temperature (median over replicates), in situ; higher = more thermally stable
HeLa Kyoto [2] = experiment: solubility in G1/S (NP-40 vs SDS abundance) (log2 ratio); higher = more soluble; conditions: cell cycle stage: G1/S
HeLa Kyoto [3] = experiment: solubility change mitosis vs G1/S (difference of NP-40 vs SDS log2 ratios) (log2 ratio difference); higher = more soluble in mitosis
HeLa Kyoto [4] = experiment: thermal stability score vs G1/S (z-score of summed log2 fold changes over temperatures); higher = more thermally stable than in G1/S
[5] = cell cycle stage: early G1 (4.5 h after nocodazole release)
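Wherever melting temperature (median over replicates), in situ is given: HeLa Kyoto cells synchronized by double thymidine or nocodazole block, proteins quantified by TMT10plex mass spectrometry, three independent biological replicates.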
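Wherever solubility change mitosis vs G1/S (difference of NP-40 vs SDS log2 ratios) is given: synchronized HeLa Kyoto cells (double thymidine block for G1/S, nocodazole release for mitosis), protein amounts in NP-40 versus SDS lysates quantified by mass spectrometry, three biological replicates.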
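Wherever solubility in G1/S (NP-40 vs SDS abundance) is given: HeLa Kyoto cells arrested at G1/S by double thymidine block, proteins quantified by TMT10plex mass spectrometry in mild NP-40 versus SDS extracts, three biological replicates.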
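Wherever thermal stability score vs G1/S (z-score of summed log2 fold changes over temperatures) is given: synchronized HeLa Kyoto cells, proteins quantified by TMT10plex mass spectrometry, three biological replicates, mitosis taken 0.5 h after nocodazole release, G1/S directly after double thymidine block.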

Row | Sequence | melting temperature (HeLa Kyoto [1]; cell cycle stage: G1/S) [°C] | melting temperature (HeLa Kyoto [1]; cell cycle stage: mitosis) [°C] | solubility in G1/S (log2) (HeLa Kyoto [2]) | solubility change mitosis (log2) (HeLa Kyoto [3]) | thermal stability score (HeLa Kyoto [4]; [5]) | thermal stability score (HeLa Kyoto [4]; cell cycle stage: mitosis)
1 | MEGISNFKTPSKLSEKKKSVLCSTPTINIPASPFMQKLGFGTGVNVYLMKRSPRGLSHSPWAVKKINPICNDHYRSVYQKRLMDEAKILKSLHHPNIVGYRAFTEANDGSLCLAMEYGGEKSLNDLIEERYKASQDPFPAAIILKVALNMARGLKYLHQEKKLLHGDIKSSNVVIKGDFETIKICDVGVSLPLDENMTVTDPEACYIGTEPWKPKEAVEENGVITDKADIFAFGLTLWEMMTLSIPHINLSNDDDDEDKTFDESDFDDEAYYAALGTRPPINMEELDESYQKVIELFSVCTNEDPKDRPSAAHIVEALETDV [PBK] | 47.7 | 47.6 | 0.0996 | 0.0797 | 1.05 | 3.4
2 | MEGPGLGSQCRNHSHGPHPPGFGRYGICAHENKELANAREALPLIEDSSNCDIVKATQYGIFERCKELVEAGYDVRQPDKENVSLLHWAAINNRLDLVKFYISKGAVVDQLGGDLNSTPLHWAIRQGHLPMVILLLQHGADPTLIDGEGFSSIHLAVLFQHMPIIAYLISKGQSVNMTDVNGQTPLMLSAHKVIGPEPTGFLLKFNPSLNVVDKIHQNTPLHWAVAAGNVNAVDKLLEAGSSLDIQNVKGETPLDMALQNKNQLIIHMLKTEAKMRANQKFRLWRWLQKCELFLLLMLSVITMWAIGYILDFNSDSWLLKGCLLVTLFFLTSLFPRFLVGYKNLVYLPTAFLLSSVFWIFMTWFILFFPDLAGAPFYFSFIFSIVAFLYFFYKTWATDPGFTKASEEEKKVNIITLAETGSLDFRTFCTSCLIRKPLRSLHCHVCNCCVARYDQHCLWTGRCIGFGNHHYYIFFLFFLSMVCGWIIYGSFIYLSSHCATTFKEDGLWTYLNQIVACSPWVLYILMLATFHFSWSTFLLLNQLFQIAFLGLTSHERISLQKQSKHMKQTLSLRKTPYNLGFMQNLADFFQCGCFGLVKPCVVDWTSQYTMVFHPAREKVLRSV [ZDHHC13] | 51.6 | 51.4 | 0.0826 | -0.158 | -0.948 | -1.02
3 | MEGSLEREAPAGALAAVLKHSSTLPPESTQVRGYDFNRGVNYRALLEAFGTTGFQATNFGRAVQQVNAMIEKKLEPLSQDEDQHADLTQSRRPLTSCTIFLGYTSNLISSGIRETIRYLVQHNMVDVLVTTAGGVEEDLIKCLAPTYLGEFSLRGKELRENGINRIGNLLVPNENYCKFEDWLMPILDQMVMEQNTEGVKWTPSKMIARLGKEINNPESVYYWAQKNHIPVFSPALTDGSLGDMIFFHSYKNPGLVLDIVEDLRLINTQAIFAKCTGMIILGGGVVKHHIANANLMRNGADYAVYINTAQEFDGSDSGARPDEAVSWGKIRVDAQPVKVYADASLVFPLLVAETFAQKMDAFMHEKNED [DHPS] | 56.2 | 56.8 | 0.164 | -0.0341 | -0.0223 | -1.85
4 | MEKFGMNFGGGPSKKDLLETIETQKKQLLQYQARLKDVVRAYKSLLKEKEALEASIKVLSVSHEADVGLAGVQLPGLTFPDSVDDRCSTHSEDSTGTATSLDTAASLTSTKGEFGVEDDRPARGPPPPKSEEASWSESGVSSSSGDGPFAGGEVDKRLHQLKTQLATLTSSLATVTQEKSRMEASYLADKKKMKQDLEDASNKAEEERARLEGELKGLQEQIAETKARLITQQHDRAQEQSDHALMLRELQKLLQEERTQRQDLELRLEETREALAGRAYAAEQMEGFELQTKQLTREVEELKSELQAIRDEKNQPDPRLQELQEEAARLKSHFQAQLQQEMRKTALAEDQLRQQSQVEEQRVAALENQISEVSELLGTYEKAKQKDQLAIQKLKERILQLDLENKTLALAASSRSPLDSHGEESSLDVNVLKDKMEKLKRLLQVAARKSQVTLDVEKLCDLEIMPSSEAADGEKATALYYQQELKQLKEEFERYKMRAQVVLKSKNTKDGNLGKELEAAQEQLAELKEKYISLRLSCEELEHQHQQEADDWKQELARLQQLHRQELERCQLDFRDRTLKLEEELHKQRDRALAVLTEKDLELEQLRSVALASGLPGRRSPVGGGGPGDPADTSSSDSLTQALQLAAANEPTFFLYAEQLARKEVEITSLRKQKHRLEVEVHQLQDRLLEEGERHREEVAALQSHIEKNIRDQSREGANLEYLKNIIYRFLTLPDSLGRQQTLTAILTILHFSPEEKQVIMRLPTSASWWPSGKR [GCC1] | 48.7 | 51.5 | 0.527 | -0.114 | -0.43 | 0.117
5 | MEKILQMAEGIDIGEMPSYDLVLSKPSKGQKRHLSTCDGQNPPKKQAGSKFHARPRFEPVHFVASSSKDERQEDPYGPQTKEVNEQTHFASMPRDIYQDYTQDSFSIQDGNSQYCDSSGFILTKDQPVTANMYFDSGNPAPSTTSQQANSQSTPEPSPSQTFPESVVAEKQYFIEKLTATIWKNLSNPEMTSGSDKINYTYMLTRCIQACKTNPEYIYAPLKEIPPADIPKNKKLLTDGYACEVRCQNIYLTTGYAGSKNGSRDRATELAVKLLQKRIEVRVVRRKFKHTFGEDLVVCQIGMSSYEFPPALKPPEDLVVLGKDASGQPIFNASAKHWTNFVITENANDAIGILNNSASFNKMSIEYKYEMMPNRTWRCRVFLQDHCLAEGYGTKKTSKHAAADEALKILQKTQPTYPSVKSSQCHTGSSPRGSGKKKDIKDLVVYENSSNPVCTLNDTAQFNRMTVEYVYERMTGLRWKCKVILESEVIAEAVGVKKTVKYEAAGEAVKTLKKTQPTVINNLKKGAVEDVISRNEIQGRSAEEAYKQQIKEDNIGNQLLRKMGWTGGGLGKSGEGIREPISVKEQHKREGLGLDVERVNKIAKRDIEQIIRNYARSESHTDLTFSRELTNDERKQIHQIAQKYGLKSKSHGVGHDRYLVVGRKRRKEDLLDQLKQEGQVGHYELVMPQAN [NKRF] | 44.4 | 48 | -0.517 | 0.226 | 3.45 | 6.93
6 | MEKLHQCYWKSGEPQSDDIEASRMKRAAAKHLIERYYHQLTEGCGNEACTNEFCASCPTFLRMDNNAAAIKALELYKINAKLCDPHPSKKGASSAYLENSKGAPNNSCSEIKMNKKGARIDFKDVTYLTEEKVYEILELCREREDYSPLIRVIGRVFSSAEALVQSFRKVKQHTKEELKSLQAKDEDKDEDEKEKAACSAAAMEEDSEASSSRIGDSSQGDNNLQKLGPDDVSVDIDAIRRVYTRLLSNEKIETAFLNALVYLSPNVECDLTYHNVYSRDPNYLNLFIIVMENRNLHSPEYLEMALPLFCKAMSKLPLAAQGKLIRLWSKYNADQIRRMMETFQQLITYKVISNEFNSRNLVNDDDAIVAASKCLKMVYYANVVGGEVDTNHNEEDDEEPIPESSELTLQELLGEERRNKKGPRVDPLETELGVKTLDCRKPLIPFEEFINEPLNEVLEMDKDYTFFKVETENKFSFMTCPFILNAVTKNLGLYYDNRIRMYSERRITVLYSLVQGQQLNPYLRLKVRRDHIIDDALVRLEMIAMENPADLKKQLYVEFEGEQGVDEGGVSKEFFQLVVEEIFNPDIGMFTYDESTKLFWFNPSSFETEGQFTLIGIVLGLAIYNNCILDVHFPMVVYRKLMGKKGTFRDLGDSHPVLYQSLKDLLEYEGNVEDDMMITFQISQTDLFGNPMMYDLKENGDKIPITNENRKEFVNLYSDYILNKSVEKQFKAFRRGFHMVTNESPLKYLFRPEEIELLICGSRNLDFQALEETTEYDGGYTRDSVLIREFWEIVHSFTDEQKRLFLQFTTGTDRAPVGGLGKLKMIIAKNGPDTERLPTSHTCFNVLLLPEYSSKEKLKERLLKAITYAKGFGML [UBE3A] | 52.8 | 52 | -0.0632 | -0.175 | -0.231 | -0.936
7 | MEKTCIDALPLTMNSSEKQETVCIFGTGDFGRSLGLKMLQCGYSVVFGSRNPQKTTLLPSGAEVLSYSEAAKKSGIIIIAIHREHYDFLTELTEVLNGKILVDISNNLKINQYPESNAEYLAHLVPGAHVVKAFNTISAWALQSGALDASRQVFVCGNDSKAKQRVMDIVRNLGLTPMDQGSLMAAKEIEKYPLQLFPMWRFPFYLSAVLCVFLFFYCVIRDVIYPYVYEKKDNTFRMAISIPNRIFPITALTLLALVYLPGVIAAILQLYRGTKYRRFPDWLDHWMLCRKQLGLVALGFAFLHVLYTLVIPIRYYVRWRLGNLTVTQAILKKENPFSTSSAWLSDSYVALGILGFFLFVLLGITSLPSVSNAVNWREFRFVQSKLGYLTLILCTAHTLVYGGKRFLSPSNLRWYLPAAYVLGLIIPCTVLVIKFVLIMPCVDNTLTRIRQGWERNSKH [STEAP4] | 60.3 | 57.7 | -0.0287 | -0.115 | -2.95 | -3.54
8 | MELGSCLEGGREAAEEEGEPEVKKRRLLCVEFASVASCDAAVAQCFLAENDWEMERALNSYFEPPVEESALERRPETISEPKTYVDLTNEETTDSTTSKISPSEDTQQENGSMFSLITWNIDGLDLNNLSERARGVCSYLALYSPDVIFLQEVIPPYYSYLKKRSSNYEIITGHEEGYFTAIMLKKSRVKLKSQEIIPFPSTKMMRNLLCVHVNVSGNELCLMTSHLESTRGHAAERMNQLKMVLKKMQEAPESATVIFAGDTNLRDREVTRCGGLPNNIVDVWEFLGKPKHCQYTWDTQMNSNLGITAACKLRFDRIFFRAAAEEGHIIPRSLDLLGLEKLDCGRFPSDHWGLLCNLDIIL [TDP2] | 49.7 | 51.7 | 0.116 | -0.193 | -0.731 | -0.039
9 | MELQPPEASIAVVSIPRQLPGSHSEAGVQGLSAGDDSELGSHCVAQTGLELLASGDPLPSASQNAEMIETGSDCVTQAGLQLLASSDPPALASKNAEVTGTMSQDTEVDMKEVELNELEPEKQPMNAASGAAMSLAGAEKNGLVKIKVAEDEAEAAAAAKFTGLSKEELLKVAGSPGWVRTRWALLLLFWLGWLGMLAGAVVIIVRAPRCRELPAQKWWHTGALYRIGDLQAFQGHGAGNLAGLKGRLDYLSSLKVKGLVLGPIHKNQKDDVAQTDLLQIDPNFGSKEDFDSLLQSAKKKSIRVILDLTPNYRGENSWFSTQVDTVATKVKDALEFWLQAGVDGFQVRDIENLKDASSFLAEWQNITKGFSEDRLLIAGTNSSDLQQILSLLESNKDLLLTSSYLSDSGSTGEHTKSLVTQYLNATGNRWCSWSLSQARLLTSFLPAQLLRLYQLMLFTLPGTPVFSYGDEIGLDAAALPGQPMEAPVMLWDESSFPDIPGAVSANMTVKGQSEDPGSLLSLFRRLSDQRSKERSLLHGDFHAFSAGPGLFSYIRHWDQNERFLVVLNFGDVGLSAGLQASDLPASASLPAKADLLLSTQPGREEGSPLELERLKLEPHEGLLLRFPYAA [SLC3A2] | 59.8 | 60.5 | 0.345 | -0.0187 | -2.05 | -1.32
10 | MELRVGNKYRLGRKIGSGSFGDIYLGANIASGEEVAIKLECVKTKHPQLHIESKFYKMMQGGVGIPSIKWCGAEGDYNVMVMELLGPSLEDLFNFCSRKFSLKTVLLLADQMISRIEYIHSKNFIHRDVKPDNFLMGLGKKGNLVYIIDFGLAKKYRDARTHQHIPYRENKNLTGTARYASINTHLGIEQSRRDDLESLGYVLMYFNLGSLPWQGLKAATKRQKYERISEKKMSTPIEVLCKGYPSEFSTYLNFCRSLRFDDKPDYSYLRQLFRNLFHRQGFSYDYVFDWNMLKFGAARNPEDVDRERREHEREERMGQLRGSATRALPPGPPTGATANRLRSAAEPVASTPASRIQPAGNTSPRAISRVDRERKVSMRLHRGAPANVSSSDLTGRQEVSRIPASQTSVPFDHLGK [CSNK1E] | 49.7 | 49 | -0.212 | 0.102 | 0.572 | 0.264
11 | MELSAVGERVFAAEALLKRRIRKGRMEYLVKWKGWSQKYSTWEPEENILDARLLAAFEEREREMELYGPKKRGPKPKTFLLKAQAKAKAKTYEFRSDSARGIRIPYPGRSPQDLASTSRAREGLRNMGLSPPASSTSTSSTCRAEAPRDRDRDRDRDRERDRERERERERERERERERERGTSRVDDKPSSPGDSSKKRGPKPRKELPDPSQRPLGEPSAGLGEYLKGRKLDDTPSGAGKFPAGHSVIQLARRQDSDLVQCGVTSPSSAEATGKLAVDTFPARVIKHRAAFLEAKGQGALDPNGTRVRHGSGPPSSGGGLYRDMGAQGGRPSLIARIPVARILGDPEEESWSPSLTNLEKVVVTDVTSNFLTVTIKESNTDQGFFKEKR [CBX8] | 46.1 | 49.5 | -0.615 | 0.612 | 2.83 | 5.27
